Reference: patent US7390643B2, “Geranyl diphosphate synthase molecules, and nucleic acid molecules encoding same” (Washington State University Research Foundation, priority 2002, dated 2008)
Several values for one entry are separate records, joined by “and”; a condition that tells them apart may be missing. Identical values can stand only once.

Columns and labels:
[1] = test system: CC(C)=CCOP(=O)(O)OP(=O)(O)O; test: purified protein, by the assay type; details: other: apparent; at saturating concentrations of IPP (212 mM [sic]); means ± SD of three determinations; 70.0 °C
Protocol: (§1) The assay procedures and methods for product analysis were similar to those previously described (C. Burke and R. Croteau, J. Biol. Chem. 277:3141-3149, 2002), except that for radio-GC a Raga (Raytest) radio-detector connected in-line to a Series 600 (Gow-Mac) chromatograph was employed with a 5% phenyl polysiloxane (ZB-5; Phenomenex) capillary column under hydrogen gas flow (70° C. for 5 min. followed by an 8° C. per min. ramp to 240° C. for 5 min).
(§2) Molecular weight determination and kinetic evaluation. […] For kinetic evaluation, the standard prenyltransferase assay was performed (C. Burke and R. Croteau, J. Biol. Chem. 277:3141-3149, 2002) but the reaction was terminated after 4 min. to ensure linearity in the rate measurements.
(§3) Kinetic characterization of the GPP synthases (SEQ ID NOS:12, 16, and 20).

[2] = test system: C=C(C)CCO[P@@](=O)(O)OP(=O)(O)O; test: purified protein, by the assay type; details: 70.0 °C; for kcat: other: IPP and DMAPP as co-substrates, MgCl2 cofactor; for Km: other: apparent, at saturating concentrations of DMAPP (350 mM [sic]), means ± SD of three determinations
Protocol: as §1, §2, §3

Substance | Km [1] | kcat [2] | Km [2]
Grand fir (Abies grandis) geranyl diphosphate synthase AgGPPS2, N-terminally truncated (E86M), C-terminal His6 tag, SEQ ID NO: 12 (Abies grandis; E86M) | 90 ± 1 µM | 1.8 s⁻¹ | 55 ± 4 µM
Grand fir (Abies grandis) geranyl diphosphate synthase AgGPPS1, N-terminally truncated (E88M), C-terminal His6 tag, SEQ ID NO: 16 (Abies grandis; E88M) | 163 ± 13 µM | 1.6 s⁻¹ | 44 ± 5 µM
Grand fir (Abies grandis) geranyl diphosphate synthase AgGPPS3, N-terminally truncated (E92M), C-terminal His6 tag, SEQ ID NO: 20 (Abies grandis; E92M) | 82 ± 5 µM | 0.47 s⁻¹ and 0.5 ± 0.1 s⁻¹ | 44 ± 7 µM
